Series [1] deals with Aca1 protein of Pseudomonas aeruginosa phage JBD30, full-length (1-79), wild type (Pseudomonas aeruginosa phage JBD30). Description: SEC.
The next series deals with T1, Aca1 (Pseudomonas aeruginosa phage JBD30, UniProt L7P845 1-79).
T1 sequence: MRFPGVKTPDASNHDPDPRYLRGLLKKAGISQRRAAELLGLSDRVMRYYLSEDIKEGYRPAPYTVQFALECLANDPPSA
The experiment in a line: ITC. (In general: ITC needs no label: the signal is the heat of the interaction.)

In the next series the target is T2, Aca2 R39A (Pectobacterium carotovorum temperate …, UniProt H9C180 1-116, R39A).
T2 sequence: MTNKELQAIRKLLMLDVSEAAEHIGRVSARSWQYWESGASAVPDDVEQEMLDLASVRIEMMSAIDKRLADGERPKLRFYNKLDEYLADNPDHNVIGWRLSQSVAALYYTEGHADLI
The experiment in a line: ITC.

For a further series, the target named is T3, Aca2 Y34A (Pectobacterium carotovorum temperate …, UniProt H9C180 1-116, Y34A).
T3 sequence: T2 sequence with Y34A, A39R
The experiment in a line: ITC.

In another series the target is T4, Aca2 R30A (Pectobacterium carotovorum temperate …, UniProt H9C180 1-116, R30A).
T4 sequence: T2 sequence with R30A, A39R
Description: ITC.

Another series addresses T5, Aca1 R47A (Pseudomonas aeruginosa phage JBD30, UniProt L7P845 1-79, R47A).
T5 sequence: T1 sequence with R47A
Description: ITC.

The next series addresses T6, Aca1 R44A (Pseudomonas aeruginosa phage JBD30, UniProt L7P845 1-79, R44A).
T6 sequence: T1 sequence with R44A
The experiment in a line: ITC.

For another series, the target named is T7, Aca1 R59A (Pseudomonas aeruginosa phage JBD30, UniProt L7P845 1-79, R59A).
T7 sequence: T1 sequence with R59A
The experiment in a line: ITC.

The target in another series is T8, Aca1 R22A/Q32A (Pseudomonas aeruginosa phage JBD30, UniProt L7P845 1-79, R22A;Q32A).
T8 sequence: T1 sequence with R22A, Q32A
Description: ITC.

The target in the next series is T9, Aca1 Y48A (Pseudomonas aeruginosa phage JBD30, UniProt L7P845 1-79, Y48A).
T9 sequence: T1 sequence with Y48A
The experiment in a line: ITC.

The next series deals with T10, Aca1 S42G (Pseudomonas aeruginosa phage JBD30, UniProt L7P845 1-79, S42G).
T10 sequence: T1 sequence with S42G
The experiment in a line: ITC.

The target of another series is T11, Aca1 V45A (Pseudomonas aeruginosa phage JBD30, UniProt L7P845 1-79, V45A).
T11 sequence: T1 sequence with V45A
The experiment in a line: ITC.

Where a chain is given by its changes, count along the chain named.

Take “Aca1 protein of Pseudomonas aeruginosa phage JBD30, full-length (1-79), wild type (natural protein)”: the stoichiometry N (commonly a count of units in the complex or per binding partner) in [1] amounted to 2.

B1: 21-bp IR1 (dsDNA)
DNA 1: AAGCGGCACACTGTGCCTATT
DNA 2: AATAGGCACAGTGTGCCGCTT
Consider B1, for which the Kd (usually a measure of binding affinity in units of concentration) with Aca1 worked out at 53.2 nM.

B2: 23-bp IR2 (dsDNA)
DNA 1: AATTAGGCACAATGTGCCTAATC
DNA 2: GATTAGGCACATTGTGCCTAATT
Consider B2, for which the Kd in the series with Aca1 was 32.2 nM.

B3: 26-bp ZF40-IR1 blunt (dsDNA)
DNA 1: TGCTTGTTCGCGATTGCGAACATATA
DNA 2: TATATGTTCGCAATCGCGAACAAGCA
On to B3, for which the binding result with Aca2 R39A, in the series with Aca2 Y34A and with Aca2 R30A was “no binding” each time.

B4: 21-bp IR2 (dsDNA)
DNA 1: ATTAGGCACAATGTGCCTAAT
DNA 2: ATTAGGCACATTGTGCCTAAT
Regarding B4, the binding result with Aca1 R47A, in the series with Aca1 R44A, with Aca1 R59A and in the series with Aca1 R22A/Q32A was “no binding” throughout. Besides, the Kd amounted to 2860 nM in the series with Aca1 Y48A, 74.1 nM with Aca1, 59.2 nM with Aca1 S42G and 364 nM with Aca1 V45A.

B5: 19-bp IR2 blunt (dsDNA)
DNA 1: TTAGGCACAATGTGCCTAA
DNA 2: TTAGGCACATTGTGCCTAA
Consider B5, for which, in the series with Aca1, binding was characterised by a dissociation constant (Kd) of 741 nM. That is a sub-micromolar value.

The record behind these values is article PMC8633003.
